These are literature values, as cited in PMC6873222.

One data set deals with CD55 ECD (Homo sapiens) (UniProt P08174).
For the next data set, the target named is SIRPG ECD (Homo sapiens) (UniProt Q9P1W8).
Chain of UniProt Q9P1W8 (Q9P1W8 29-360): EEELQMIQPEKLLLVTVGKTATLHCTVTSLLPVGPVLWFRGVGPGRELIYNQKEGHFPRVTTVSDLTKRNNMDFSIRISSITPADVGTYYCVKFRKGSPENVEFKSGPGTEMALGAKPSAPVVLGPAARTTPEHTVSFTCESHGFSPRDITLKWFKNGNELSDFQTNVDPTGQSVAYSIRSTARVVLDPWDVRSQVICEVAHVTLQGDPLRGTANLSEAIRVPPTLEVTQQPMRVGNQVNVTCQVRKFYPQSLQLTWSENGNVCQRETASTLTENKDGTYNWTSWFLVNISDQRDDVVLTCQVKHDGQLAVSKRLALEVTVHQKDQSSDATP

Chain of UniProt P08174 (P08174 35-353): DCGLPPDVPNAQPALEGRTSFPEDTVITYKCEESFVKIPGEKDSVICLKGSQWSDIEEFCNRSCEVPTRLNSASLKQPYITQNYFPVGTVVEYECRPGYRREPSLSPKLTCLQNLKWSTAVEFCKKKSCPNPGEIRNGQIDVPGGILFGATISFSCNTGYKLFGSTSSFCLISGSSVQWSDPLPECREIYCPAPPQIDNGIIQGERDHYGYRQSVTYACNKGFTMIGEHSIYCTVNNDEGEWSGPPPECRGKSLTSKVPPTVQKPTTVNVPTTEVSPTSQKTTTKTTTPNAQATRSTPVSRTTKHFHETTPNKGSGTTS

On to CD97 ECD (from UniProt P48960), for which the Kd (commonly the free concentration of one partner at which half of the binding sites on the other are occupied at equilibrium, for simple one-to-one binding) with CD55 ECD (Homo sapiens) is more than 80 µM.

For CD47 ECD (from UniProt Q08722), in the data set with SIRPG ECD (Homo sapiens), the Kd is 23 µM.
